Measured values as given in the MegaScale stability set (Tsuboyama et al. 2023).

B1: 1ZHC (parent)
chain: HEFRDEISVLKANNPHFDKIFEKHNQLDDDIKTAEQQNASDAEVSHMKKQKLKLKDEIHSMIIEYREK
B2: HEEH_KT_rd6_3546 (parent)
chain: SEEDKEREHWERLNRDFELRVLDTTFIAHHAEEVIKLLRWLEK

Variants of: B1
Assay: folding stability dG (cDNA display proteolysis); higher = more stable
Details: PBS, room temperature

Variant	folding stability dG
E64Q	0.969 kcal/mol
K49E	0.919 kcal/mol
K49L	0.949 kcal/mol
K49H	0.527 kcal/mol
K51G	-0.631 kcal/mol
I63C	1.17 kcal/mol
I63V	0.61 kcal/mol
I63H	0.728 kcal/mol
A39G	0.787 kcal/mol
I58C	0.015 kcal/mol
Q50K	0.22 kcal/mol
Q50G	-0.255 kcal/mol
Q50E	0.976 kcal/mol
A42R	-0.079 kcal/mol
F21M	0.443 kcal/mol
K53C	0.879 kcal/mol
K53L	1.16 kcal/mol
K53F	0.261 kcal/mol
K53Y	0.301 kcal/mol
K53H	0.266 kcal/mol
K53W	0.603 kcal/mol
D18Y	1.95 kcal/mol

Variant	folding stability dG
E57C	0.959 kcal/mol
E57H	-0.994 kcal/mol
T33N	1.07 kcal/mol
H1P	0.497 kcal/mol
H1K	0.855 kcal/mol
S40H	0.256 kcal/mol
D30Y	0.857 kcal/mol
S60R	1.65 kcal/mol
S60F	0.717 kcal/mol
N25G	-0.067 kcal/mol
E67S	1.04 kcal/mol
D41T	0.736 kcal/mol
D56T	0.838 kcal/mol
I7W	0.295 kcal/mol
E22N	1.34 kcal/mol
A12T	0.659 kcal/mol
A12M	0.648 kcal/mol
N13G	0.346 kcal/mol
N13F	0.565 kcal/mol
N13I	1.31 kcal/mol
D29Y	1.25 kcal/mol
D29E	1.24 kcal/mol

Variant	folding stability dG
K23D	0.146 kcal/mol
K23R	0.933 kcal/mol
H46M	1.1 kcal/mol
L52C	0.71 kcal/mol
S8K	1.21 kcal/mol
S8G	0.671 kcal/mol
S8N	0.922 kcal/mol
S8L	1.21 kcal/mol
R4F	1.5 kcal/mol
R4Y	1.25 kcal/mol
L27C	0.277 kcal/mol
Q37H	1.05 kcal/mol
Q37V	0.447 kcal/mol
E6G	-0.608 kcal/mol
E6T	1.14 kcal/mol
E35N	0.058 kcal/mol
F3S	0.019 kcal/mol
F3H	0.635 kcal/mol
K48S	-0.947 kcal/mol
M61Y	0.306 kcal/mol

Variants of: B2
Assay: as above
Details: PBS, room temperature

Variant	folding stability dG
R7K	1.19 kcal/mol
R7P	1.19 kcal/mol
R7E	1.3 kcal/mol
R7Q	1.34 kcal/mol
R7G	1.47 kcal/mol
R7M	1.46 kcal/mol
R7V	1.28 kcal/mol
R7T	1.26 kcal/mol
R7I	1.36 kcal/mol
R7Y	1.21 kcal/mol
R7A	1.53 kcal/mol
R7D	1.25 kcal/mol
R7L	1.26 kcal/mol
R7S	1.3 kcal/mol
R7H	1.18 kcal/mol
R7W	1.39 kcal/mol
R7F	1.13 kcal/mol
R7N	1.26 kcal/mol
R12N	1.35 kcal/mol
R12P	1.08 kcal/mol
R12E	1.17 kcal/mol
R12V	1.37 kcal/mol
R12Q	1.26 kcal/mol
R12W	2.2 kcal/mol
R12C	1.6 kcal/mol

Variant	folding stability dG
R12G	1.16 kcal/mol
R12D	1.65 kcal/mol
R12Y	1.66 kcal/mol
R12A	1.32 kcal/mol
R12L	1.55 kcal/mol
R12T	1.53 kcal/mol
R12F	1.76 kcal/mol
R12S	1.43 kcal/mol
R12K	1.29 kcal/mol
R12M	1.64 kcal/mol
R12H	1.15 kcal/mol
R12I	1.41 kcal/mol
E3F	1.63 kcal/mol
E3T	1.19 kcal/mol
E3L	1.61 kcal/mol
E3R	1.48 kcal/mol
E3W	1.65 kcal/mol
E3G	1.28 kcal/mol
E3K	1.4 kcal/mol
E3N	1.51 kcal/mol
E3V	1.29 kcal/mol
E3D	1.49 kcal/mol
E3S	1.45 kcal/mol
E3P	1.3 kcal/mol
E3I	1.56 kcal/mol

Variant	folding stability dG
E3H	1.36 kcal/mol
E3M	1.33 kcal/mol
E3Q	1.41 kcal/mol
E3Y	1.39 kcal/mol
E3A	1.22 kcal/mol
E2T	1.48 kcal/mol
E2W	1.57 kcal/mol
E2S	1.31 kcal/mol
E2N	1.38 kcal/mol
E2K	1.45 kcal/mol
E2D	1.44 kcal/mol
E2P	1.34 kcal/mol
E2F	1.36 kcal/mol
E2Y	1.45 kcal/mol
E2M	1.43 kcal/mol
E2H	1.42 kcal/mol
E2G	1.57 kcal/mol
E2A	1.48 kcal/mol
E2Q	1.62 kcal/mol
E2L	1.53 kcal/mol
E2R	1.61 kcal/mol
E2V	1.45 kcal/mol
E2I	1.6 kcal/mol
H9D	1.2 kcal/mol
H9L	1.53 kcal/mol

Variant	folding stability dG
H9K	1.34 kcal/mol
H9W	2.17 kcal/mol
H9T	1.5 kcal/mol
H9Q	1.35 kcal/mol
H9R	1.31 kcal/mol
H9M	1.64 kcal/mol
H9P	1.1 kcal/mol
H9G	1.42 kcal/mol
H9Y	1.65 kcal/mol
H9S	1.38 kcal/mol
H9C	2.53 kcal/mol
H9A	1.42 kcal/mol
H9I	1.86 kcal/mol
H9E	1.2 kcal/mol
H9V	1.47 kcal/mol
H9N	1.23 kcal/mol
H9F	1.91 kcal/mol
S1A	1.28 kcal/mol
S1G	1.51 kcal/mol
S1K	1.18 kcal/mol
S1D	1.36 kcal/mol
S1W	1.16 kcal/mol
S1P	1.43 kcal/mol
S1H	1.35 kcal/mol
S1M	0.916 kcal/mol

Variant	folding stability dG
S1E	1.19 kcal/mol
S1R	1.36 kcal/mol
S1C	2.12 kcal/mol
S1Y	1.27 kcal/mol
S1V	1.31 kcal/mol
S1F	1.13 kcal/mol
S1L	1.35 kcal/mol
S1Q	1.5 kcal/mol
S1N	1.3 kcal/mol
S1T	1.4 kcal/mol
S1I	1.22 kcal/mol
R15F	2.37 kcal/mol
R15M	1.75 kcal/mol
R15I	2.41 kcal/mol
R15L	2.07 kcal/mol
R15G	1.29 kcal/mol
R15D	1.22 kcal/mol
R15K	1.25 kcal/mol
R15H	1.42 kcal/mol
R15E	1.23 kcal/mol
R15A	1.55 kcal/mol
R15C	2.36 kcal/mol
W10P	0.979 kcal/mol
W10L	1.36 kcal/mol
W10M	1.05 kcal/mol

Variant	folding stability dG
W10A	1.03 kcal/mol
W10T	1.07 kcal/mol
W10H	1.09 kcal/mol
W10G	1.12 kcal/mol
W10K	1.22 kcal/mol
W10Q	1.25 kcal/mol
W10E	1.05 kcal/mol
W10S	1.17 kcal/mol
W10C	1.79 kcal/mol
W10R	1.02 kcal/mol
W10D	1.25 kcal/mol
W10F	1.32 kcal/mol
W10V	1.03 kcal/mol
W10N	1.15 kcal/mol
W10I	1.2 kcal/mol
W10Y	1.09 kcal/mol
L13V	1.39 kcal/mol
L13Y	1.77 kcal/mol
L13Q	0.972 kcal/mol
L13I	1.53 kcal/mol
L13A	1.17 kcal/mol
L13S	1.26 kcal/mol
L13F	1.7 kcal/mol
L13W	1.75 kcal/mol
L13M	1.36 kcal/mol

Variant	folding stability dG
L13N	1.43 kcal/mol
L13H	1.15 kcal/mol
L13G	1.16 kcal/mol
L13K	1.4 kcal/mol
L13D	1.24 kcal/mol
L13T	1.52 kcal/mol
L13R	1.88 kcal/mol
L13P	1.14 kcal/mol
L13E	0.952 kcal/mol
N14C	2.44 kcal/mol
N14A	1.84 kcal/mol
N14T	1.8 kcal/mol
N14S	1.96 kcal/mol
N14R	2.11 kcal/mol
N14E	1.2 kcal/mol
N14V	2.21 kcal/mol
N14Y	2.2 kcal/mol
N14W	2.69 kcal/mol
N14G	1.55 kcal/mol
N14P	1.8 kcal/mol
N14M	2.22 kcal/mol
N14Q	1.67 kcal/mol
N14L	2.39 kcal/mol
N14K	1.72 kcal/mol
N14D	1.1 kcal/mol

Variant	folding stability dG
N14H	1.58 kcal/mol
N14I	2.2 kcal/mol
N14F	2.4 kcal/mol
K5Y	1.35 kcal/mol
K5G	1.27 kcal/mol
K5V	1.46 kcal/mol
K5H	1.4 kcal/mol
K5T	1.21 kcal/mol
K5P	1.28 kcal/mol
K5M	1.21 kcal/mol
K5D	1.41 kcal/mol
K5A	1.39 kcal/mol
K5N	1.29 kcal/mol
K5W	1.67 kcal/mol
K5I	1.17 kcal/mol
K5S	1.08 kcal/mol
K5R	1.23 kcal/mol
K5Q	1.11 kcal/mol
K5L	1.15 kcal/mol
K5F	1.44 kcal/mol
K5E	1.39 kcal/mol
E6G	1.35 kcal/mol
E6F	1.73 kcal/mol
E6H	1.43 kcal/mol
E6T	1.56 kcal/mol

Variant	folding stability dG
E6K	1.18 kcal/mol
E6V	1.56 kcal/mol
E6N	1.38 kcal/mol
E6A	1.49 kcal/mol
E6D	0.956 kcal/mol
E6C	1.7 kcal/mol
E6W	1.8 kcal/mol
E6P	1.19 kcal/mol
E6Q	1.48 kcal/mol
E6M	1.54 kcal/mol
E6I	1.62 kcal/mol
E6R	1.38 kcal/mol
E6L	1.55 kcal/mol
E6S	1.47 kcal/mol
E6Y	1.55 kcal/mol
E11Q	1.73 kcal/mol
E11M	1.9 kcal/mol
E11V	1.52 kcal/mol
E11P	1.71 kcal/mol
E11D	1.55 kcal/mol
E11S	2.16 kcal/mol
E11L	2.11 kcal/mol
E11H	1.79 kcal/mol
E11F	2.43 kcal/mol
E11A	2.07 kcal/mol

Variant	folding stability dG
E11T	1.91 kcal/mol
E11W	2.37 kcal/mol
E11R	2.11 kcal/mol
E11Y	2.17 kcal/mol
E11I	2.17 kcal/mol
E11K	1.69 kcal/mol
E11N	1.59 kcal/mol
E11G	1.76 kcal/mol
D4Y	1.37 kcal/mol
D4N	1.44 kcal/mol
D4S	1.29 kcal/mol
D4L	1.53 kcal/mol
D4Q	1.42 kcal/mol
D4F	1.46 kcal/mol
D4R	1.39 kcal/mol
D4K	1.41 kcal/mol
D4T	1.42 kcal/mol
D4G	1.28 kcal/mol
D4W	1.45 kcal/mol
D4I	1.4 kcal/mol
D4A	1.38 kcal/mol
D4H	1.41 kcal/mol
D4P	1.38 kcal/mol
D4C	2.16 kcal/mol
D4E	1.56 kcal/mol

Variant	folding stability dG
D4M	1.42 kcal/mol
D4V	1.3 kcal/mol
E8G	1.5 kcal/mol
E8M	1.73 kcal/mol
E8Y	1.28 kcal/mol
E8P	1.09 kcal/mol
E8I	1.43 kcal/mol
E8F	1.96 kcal/mol
E8N	1.48 kcal/mol
E8D	1.17 kcal/mol
E8T	1.58 kcal/mol
E8H	1.15 kcal/mol
E8L	1.47 kcal/mol
E8Q	1.34 kcal/mol
E8R	1.34 kcal/mol
E8K	1.32 kcal/mol
E8V	1.26 kcal/mol
E8W	2.04 kcal/mol
E8A	1.4 kcal/mol
E8S	1.86 kcal/mol
